Columns and labels:
caspases = details: pan-caspase inhibitor; cited from earlier work
murine neutrophils [1] = test: In vitro neutrophil death / survival of cultured murine neutrophils; format: cell-based, mouse; details: for healthy neutrophils remaining: mouse, G-CSF alone
[2] = system: neutrophils purified from wild-type (WT) mice; test: fMLP-induced neutrophil polarization (ruffling); format: cell-based, mouse; details: fMLP 1 μM, FIG. 10
Protocol: FIG. 10A is a series of images showing chemoattractant-induced neutrophil ruffling. Neutrophils (2×10^5) purified from wild-type (WT) mice were plated on LABTEK chamber slides and cultured in RPMI-1640 in the presence or absence of Rac1 inhibitor for 60 minutes. Cells were then uniformly stimulated with N-formyl-met-leu-phe (fMLP, 1 μM). Images were taken 5 minutes after the fMLP stimulation (400×). FIG. 10B is a bar graph showing the percentage of cells that ruffled or extended pseudopods, calculated from images captured 5 minutes after stimulus was added. At least 200 cells were assessed for each sample in each experiment. Data are represented as mean±SD of three experiments. **p<0.001 versus untreated neutrophils.

neutrophils = details: 20 hours at 37° C. in anoxic culture medium with 3 mM glucose and 32 mg/mL DMOG; from about 1 day; cited from earlier work
cells = details: even at extremely high concentrations; cited from earlier work
transfused neutrophils [3] = test: In vivo recruitment of transfused neutrophils in a mouse peritonitis model; details: 1-day-old neutrophils
Protocol: In vivo recruitment of transfused neutrophils in a mouse peritonitis model: Freshly isolated CD45.1^+ or CLON-G-treated (1 day) GFP^+ bone marrow neutrophils were mixed (1:1, a total of 5×10^6/mouse) and injected intravenously into neutropenic recipient mice challenged with TG for 1 hour. At the indicated time points after cell injection, peritoneal cells were harvested by peritoneal cavity lavage with 5 mL of ice-cold PBS/15 mM EDTA, flushed back and forth three times. The relative amount of transfused freshly isolated CD45.1^+ and CLON-G-treated (1 day) GFP^+ neutrophils were analyzed by flow cytometry using a BD FACSCANTO II flow cytometer as described above.

E. coli = test: Neutropenia-related E. coli-induced pneumonia model (GTX); format: in vivo, mouse
human neutrophils = test: In vitro neutrophil death / survival of cultured human neutrophils; details: G-CSF alone
[4] = system: neutrophils in the granulocyte apheresis concentrates; test: Survival and function of neutrophils from human granulocyte apheresis concentrates; format: cell-based; details: cultured for only 1 day, FIG. 6K
Protocol: Accordingly, the donors were stimulated in the evening and granulocyte collection was carried out the next morning. Neutrophil harvesting was accomplished through the process of apheresis in which red blood cells (RBCs) and plasma were returned to the donor. To collect enough cells for GTX, standard continuous flow apheresis was performed for 1 to 1.5 hours to process 3.5 to 5 liters of blood. Citrate was used as the anticoagulant during collection and calcium gluconate was added to the return line to counteract the citrate-induced hypocalcemic symptoms in the donor. […] The purity was >97% as determined by both Wright-Giemsa staining and flow cytometry analysis with CD15 and CD16 antibodies. […] No contamination of hematopoietic progenitor cells (HPCs) was detected. […] The total initial cell number was counted using a hemocytometer before culture or treatment. At each indicated time point, the total cell number was counted again. […] Apoptotic cells were detected by Annexin V-fluorescein isothiocyanate (FITC) and propidium iodide (PI) staining using an Annexin V Detection Kit (BD BIOSCIENCES) following the manufacturer's protocol. Flow cytometry was performed using a FACSCANTO II flow cytometer and analyzed using […] software (BD BIOSCIENCES). […] Chemotaxis velocity and directionality were analyzed; see e.g., Jia et al. 2007, supra. […]

transfused neutrophils [5] = test: In vivo recruitment of transfused neutrophils in bacterial pneumonia; set-up: species or system mouse; details: lungs
Protocol: In vivo recruitment of transfused neutrophils in bacterial pneumonia: Freshly isolated or CLON-G-treated bone marrow neutrophils were labeled with carboxyfluorescein diacetate succinimidyl ester (CFSE, 5 μM) or seminaphthorhodafluor-1 acetate (SNARF-1, 5 μM) at 37° C. for 10 minutes; labeled cells were mixed (1:1, a total of 5×10^6/mouse) and transfused via the tail vein into the same neutropenic recipient mice challenged with 5×10^3 cfu E. coli for 4 hours. Whole lungs were homogenized 3 hours after neutrophil transfusion. The number of adoptively transferred neutrophils recruited to the lungs was analyzed using a FACSCANTO II flow cytometer and […] software. Relative recruitments of CLON-G-treated and freshly isolated neutrophils were calculated as the ratio of the indicated populations.

murine neutrophils [6] = test: In vitro phagocytosis assay, murine neutrophils; format: cell-based, mouse; details: after one day of culture
Protocol: In vitro phagocytosis assay: […] pHrodo Red E. coli BioParticles or Zymosan A S. cerevisiae BioParticles (INVITROGEN) were reconstituted in phosphate-buffered saline (PBS) and opsonized with 10% serum at 37° C. for 30 minutes. Neutrophils were incubated with serum-opsonized bioparticles at a ratio of 1:10 (neutrophils:bioparticles) at 37° C. for 0.5 hours. APC-Ly6G (BIOLEGEND, 1A8, 0.2 μg/mL) or APC-CD16 (BIOLEGEND, 51.1, 0.2 μg/mL) antibody was added to the sample to label mouse or human neutrophil membranes. The labeling was achieved by incubating the samples at room temperature for 3 minutes. The number of internalized particles was counted under a spinning disk confocal microscope ([…] VOX). Phagocytosis efficiency was expressed as the percentage of neutrophils that engulfed at least one bioparticle. Phagocytosis index was expressed as the average number of internalized particles per cell. At least 200 cells were counted from random fields per coverslip for each group.

[7] = system: transfused human neutrophils; test: Survival and function of transfused human neutrophils in vivo in NSG mice

C[C@H](NC(=O)C(=O)Nc1ccccc1C(C)(C)C)C(=O)N[C@@H](CC(=O)O)C(=O)COc1c(F)c(F)cc(F)c1F [Emricasan, N-[2-(1,1-dimethylethyl)phenyl]-2-oxoglycyl-N-[(1S)-1-(carboxymethyl)-2-oxo-3-(2,3,5,6-tetrafluorophenoxy)propyl]-L-Alaninamide, reference compound]
activity in vitro (caspases): sub- to nanomolar
lifespan of cultured neutrophils (murine neutrophils [1]; in combination with NAC, Hsp70, DFO, G-CSF, and optionally a RIPK1 inhibitor, FIG. 23, murine bone marrow neutrophils): prolonged the lifespan

CCN(CC)CCCC(C)Nc1nc(C)cc(Nc2ccc3nc(C)cc(N)c3c2)n1 (centres unmarked) [NSC23766]
fMLP-induced neutrophil polarization [2]: effectively inhibited

COC(=O)CNC(=O)C(=O)OC [DMOG, dimethyloxalylglycine]
neutrophil half-life in vitro (neutrophils): 48 h

CC(C)C(NC(=O)c1ccc2ccccc2n1)C(=O)NC(CC(=O)O)C(=O)COc1c(F)cccc1F (stereo not drawn) [Q-VD-Oph, Quinoline-Val-Asp-Difluorophenoxymethylketone]
toxicity to cells (cells): not toxic

B1: G-CSF: granulocyte colony-stimulating factor (AMGEN, NEUPOGEN), PI3K/Akt pathway stimulator (protein, listed as Homo sapiens)
chain: MTPLGPASSLPQSFLLKCLEQVRKIQGDGAALQEKLCATYKLCHPEELVLLGHSLGIPWAPLSSCPSQALQLAGCLSQLHSGLFLYQGLLQALEGISPELGPTLDTLQLDVADFATTIWQQMEELGMAPALQPTQGAMPAFASAFQRRAGGVLVASHLQSFLEVSYRVLRHLAQP
recruitment efficiency compared to fresh neutrophils (transfused neutrophils [3]): reduced recruitment efficiency
inflammatory cytokine concentrations (TNF-α, IL-6) (E. coli; inflamed lungs, ELISA): unable to reduce inflammatory cytokine concentrations
edema formation (E. coli; lung, transfusion of treated neutrophils): failed to produce the same protective effect
bacteria-killing capacity in neutropenic recipient mice (E. coli; transfusion of treated neutrophils, 5×10^3 cfu E. coli): ineffective
BALF protein concentrations (E. coli; transfusion of treated neutrophils, compared with fresh neutrophils): remained high
healthy neutrophils remaining (murine neutrophils [1]; after 1 day of treatment): ~40%
healthy neutrophils remaining (murine neutrophils [1]; after 3 days of treatment): ~15%
healthy neutrophils remaining (human neutrophils; after 1 day of treatment): about 55%
healthy neutrophils remaining (human neutrophils; after 3 days of treatment): ~15%
reduction in relative bacterial killing capability [4]: more than 50%
recruitment efficiency compared to fresh neutrophils (transfused neutrophils [5]): reduced recruitment efficiency
phagocytosis efficiency (murine neutrophils [6]): lower
recruitment of transfused human neutrophils to the inflamed peritoneal cavity ([7]; 1 and 2 hours post transfusion): lower
human neutrophils left in the peritoneal cavity / cell death ([7]; injected into inflamed peritoneal cavity, each time point): faster rates of cell death
phagocytosis efficiency lower than that of fresh human neutrophils ([7]; pHrodo-E. coli): about 50%
